Results: paper PMC9592637, “Functional characterization and transcriptional repression by Lacticaseibacillus paracasei DinJ-YafQ” (Applied Microbiology and Biotechnology, 2022)

Columns and labels:
[1] = tested on: DinJ (Lacticaseibacillus paracasei 4366); assay: EMSA; conditions: KDapp, Hill n 3.7 ± 0.2; salmon sperm DNA competitor; EMSA: 2 nM DNA, 128 ng salmon sperm DNA in 10 uL, 50 mM Tris-HCl pH 7.5, 50 mM KCl, 5% glycerol, room temperature 10 min, 6% native PAGE in TBE; RNAP …
[2] = biological target: the molecule itself; assay: cross-linking; glutaraldehyde 0.1%, then SDS-PAGE; DinJ at 4 and 10 uM, DinJ-YafQ at 2 and 4 uM

Molecule	Kd [1] [nM]	stoichiometry N [2]
194-bp dinJ-yafQ promoter fragment	61	–
His-tagged DinJ (L. paracasei antitoxin DinJ, N-terminal hexa-His tag) (natural protein) MSNEKRETRLSIRIDPALKEAAQNVANDMGMDLSTAVNMFLAKIVKDHALPFTPTSLPAETLQALKEAKSSRVLKRYRTPEVMWKDLEV	–	2
